The supplement of paper PMC10567573
± gives the standard deviation.

Assay: protein stability index of a GFP-peptide fusion (GPS, HEK-293T) (PSI 1-6); higher = more stable
[1] = treatment: DMSO, c terminus: a fixed tail appended
[2] = treatment: MLN4924 1 uM, 8 h, c terminus: a fixed tail appended
[3] = treatment: DMSO, c terminus: native
[4] = treatment: MLN4924 1 uM, 8 h, c terminus: native
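Also: 24-mer peptide tiles fused after GFP, lentivirally expressed, FACS-sorted into six equal bins by GFP/DsRed ratio, decoded by Illumina sequencing, PSI is the read-weighted mean bin number.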

Row | Sequence | protein stability index [1] | protein stability index [2] | protein stability index [3] | protein stability index [4]
1 | KLPPYLIFCIKRFTKNNFFVEKNP [USP39] | 3.02 ± 0.12 | 2.75 ± 0.4 | – | –
2 | EQRTIQAQKESLQNQHHSASLQAS [APBB1IP] | 5.16 ± 0.19 | 4.99 ± 0.18 | – | –
3 | WERKEGGGGISCVLQDGCVFEKAG [CPOX] | 3.82 ± 0.12 | 3.84 ± 0.24 | – | –
4 | PYPVLFHNIFLLGGSSTSERCLLN [NLN] | 3.23 ± 1.5 | 2.59 ± 0.8 | – | –
5 | RHFGTILNYLRDGSVPLPESTREL [KCTD13] | 2.78 ± 0.16 | 2.94 ± 0.41 | – | –
6 | VITIKSESTFKNTEISFILGQEFD [FABP4] | 2.23 ± 0.53 | 2.4 ± 0.078 | – | –
7 | LQEKSQCALEEYVRSQYPNQPTRF [NR2F2] | 3.16 ± 0.25 | 3.24 ± 0.24 | – | –
8 | IDICHDHFGWYLGWGDCVWLPYLY [DHCR7] | 2.55 ± 0.12 | 3.3 ± 0.27 | – | –
9 | HGASAPSVSREARQTVPPLTVRLH [PWWP2B] | 3.76 ± 0.48 | 3.73 ± 0.12 | – | –
10 | YDWLFFSPDKDSIMNIEPAILVMH [INTS3] | 2.61 ± 0.52 | 2.16 ± 0.21 | – | –
11 | LSRQEFLGMVGLFGTIISGIQLLI [SLC35F2] | 2.28 ± 0.25 | 2.09 ± 0.33 | – | –
12 | EQPFIPVEVLVDLFLKEGACDELF [PRAME] | 2.39 ± 0.16 | 2.39 ± 0.35 | – | –
13 | ILAHLTGTEFMQDPDEEHLKKSSQ [PDLIM7] | 3.9 ± 0.13 | 4.16 ± 0.25 | – | –
14 | KIGFEIGIENEEDTSKQKKMETMY [ZNF449] | 4.08 ± 0.29 | 4.07 ± 0.22 | – | –
15 | PALETQPQGDEEDIASRYPTLWTE [SMOC2] | 4.78 ± 0.34 | 4.85 ± 0.54 | – | –
16 | LVCTADGDIHLSPEEPAASTDPNI [TAF7L] | 4.85 ± 0.2 | 4.89 ± 0.22 | – | –
17 | THTKEQILELVVLEQFVAILPKEL [ZNF24] | 3.04 ± 0.72 | 2.54 ± 0.66 | – | –
18 | LDFTHPKARDWFQGHLRRLRSRYS [MYORG] | 2.79 ± 0.39 | 2.97 ± 0.074 | – | –
19 | VRLGSFRSPRAGAGALLRLPSERL [PRPH] | 2.96 ± 0.16 | 3.23 ± 0.24 | – | –
20 | DLNSKGKKREFRFHPIKETVVEEP [INTS3] | 3 ± 0.65 | 3.64 ± 0.53 | – | –
21 | LRPRPASSISLPIGHLGCISLLS [DMRTC1] | – | – | 2.47 ± 0.41 | 2.43 ± 0.33
22 | IPPKSVNPTCMCCQATSSTACHIQ [FAM219A] | 3.7 ± 0.17 | 3.82 ± 0.26 | – | –
23 | APALPPGGTDPHGYHQVPGSAAPG [FOXJ1] | 5.16 ± 0.18 | 5.38 ± 0.4 | – | –

Row | Sequence | protein stability index [1] | protein stability index [2] | protein stability index [3] | protein stability index [4]
24 | GLEHAAAGGSSGTTARERPCVRPG [FBF1] | 4.96 ± 0.24 | 4.95 ± 0.2 | – | –
25 | QPWVEVVLALRNMKNLLFSEMWDI [MFSD9] | 2.78 ± 0.66 | 2.44 ± 0.44 | – | –
26 | LKGAFPARLKKVLIVGAPIWFRVP [PTPN9] | 2.96 ± 0.7 | 2.84 ± 0.5 | – | –
27 | RRLPLAFRDATSAPLRKLSVDLIK [DYRK1B] | 2.46 ± 0.39 | 2.45 ± 0.26 | – | –
28 | GGSCRAPSTYGGGLSVSSRFSSGG [KRT16] | 2.97 ± 0.27 | 3.02 ± 0.15 | – | –
29 | PPKQAQKEQRKQMKGRGQLEKPPA [TBC1D10A] | 5.26 ± 0.18 | 5.29 ± 0.21 | – | –
30 | RKHSDLEEEEERWEWSPAGLQSYQ [SERTAD3] | 4.35 ± 0.26 | 4.38 ± 0.17 | – | –
31 | KFKESFAEMNRGSNEWKTVVGGAM [COX4I1] | 3 ± 0.13 | 3.2 ± 0.29 | – | –
32 | GEKPFKCHLCNYACRRRDALTGHL [IKZF1] | 2.2 ± 0.12 | 2.51 ± 0.53 | – | –
33 | VRQAFQDQDDRRTWDGRPLTMAAT [GFOD1] | 3.829 ± 0.031 | 3.65 ± 0.26 | – | –
34 | LEGAQAPLAVEEDASSSTSTSSSF [MAGEA10] | 5.66 ± 0.14 | 5.55 ± 0.2 | – | –
35 | RFFIDFPHIEEQQKKIESYLHNHF [TENT5D] | 2.13 ± 0.38 | 2.35 ± 0.18 | – | –
36 | QYAMTRAQRVRAAMFPETLDEGMQ [CTNNB1] | 3.76 ± 0.29 | 3.68 ± 0.39 | – | –
37 | LFKAHFRGEVLPEEITEESLEESV [INTS3] | 4.9 ± 0.091 | 4.962 ± 0.037 | – | –
38 | LEKEEEKDLVMYSKCQRLFRSPSM [CDC25B] | 3.69 ± 0.39 | 3.57 ± 0.18 | – | –
39 | NAGKVNLPKELPADAVNLTIPASL [PLAGL1] | 4.4 ± 0.25 | 4.43 ± 0.22 | – | –
40 | LTSDLYAPMVAGALARLGTVTVIS [SLC25A39] | 2.92 ± 0.4 | 2.67 ± 0.69 | – | –
41 | MPCLLMELRRDSSESQLASTESDK [C18orf25] | 4.73 ± 0.05 | 4.55 ± 0.22 | – | –
42 | HTMEEEEDDDWGEDTTEEAQRRRM [EIF5] | 5.55 ± 0.35 | 5.63 ± 0.28 | – | –
43 | DAFWWAVVTMTTVGYGDMHPVTIG [KCNA3] | 3.67 ± 0.52 | 3.17 ± 0.31 | – | –
44 | RCEMEAQNQEYKMLLDIKTRLEQE [KRT15] | 4.44 ± 0.17 | 4.6 ± 0.18 | – | –
45 | NIPMETEETHLEETTESQQNGEEG [SMARCE1] | 5.39 ± 0.5 | 5.6 ± 0.21 | – | –
46 | KHGSLNRYHNSHPLRERARKLSQG [YJU2B] | 3.73 ± 0.19 | 3.84 ± 0.12 | – | –

Row | Sequence | protein stability index [1] | protein stability index [2] | protein stability index [3] | protein stability index [4]
47 | KVVKGHRPELPPVCRARPRACSHL [RIPK4] | 3.19 ± 0.36 | 3.04 ± 0.46 | – | –
48 | QVVSQGWKYFKGNFYYFSLIPKTW [CD207] | 2.14 ± 0.41 | 2.1 ± 0.39 | – | –
49 | EDFLLKKPIVPTDGKRVIVVFHCE [CDC25A] | 2.37 ± 0.55 | 2.25 ± 0.64 | – | –
50 | ERIEARLATLEGDDPSLRKTHSSP [PSD2] | 5.08 ± 0.37 | 5.09 ± 0.18 | – | –
51 | VAREDVRESCPPLGLETLKITDFQ [CPXM2] | 3.96 ± 0.48 | 4.09 ± 0.33 | – | –
52 | FLLLIVFYTAITKKIFKSHLKSSR [P2RY14] | 2.69 ± 0.42 | 2.52 ± 0.65 | – | –
53 | FRETEKSRWSEASRAILQRVQAAA [ALKBH7] | 3.21 ± 0.18 | 3.3 ± 0.16 | – | –
54 | TDRKLDDGDDKVFRRAPSWRKRFR [PPFIA4] | 4.38 ± 0.082 | 4.51 ± 0.47 | – | –
55 | LYSSSLGGGVATSPMLIVFHGKYS [GLT8D2] | 2.38 ± 0.48 | 2.44 ± 0.52 | – | –
56 | QYRPSDLLCPETYVWVPIEQCLPS [ATE1] | 2.28 ± 0.23 | 2.47 ± 0.28 | – | –
57 | QEHSNSVGGQDTGATWRTSGLLEE [C18orf25] | 5.28 ± 0.27 | 4.96 ± 0.18 | – | –
58 | ADADCFVCVFLSHGEGNHIYAYDA [CASP6] | 2.82 ± 0.66 | 2.81 ± 0.75 | – | –
59 | EMSEKRGPTSSNPRKRHREDSDVE [MLH1] | 5.49 ± 0.44 | 5.49 ± 0.14 | – | –
60 | YHMFQREKVEVQLPELFHKIGVGA [KCNAB2] | 2.52 ± 0.59 | 2.39 ± 0.45 | – | –
61 | NPQRQGLLKTPWRAASAMQFFTKG [GCH1] | 2.89 ± 0.29 | 2.76 ± 0.21 | – | –
62 | CTLRQKLIFSPCSDCEEEEEEEEE [WEE1] | 5.04 ± 0.27 | 5 ± 0.26 | – | –
63 | SQAQETTIIASNAEEAEILHSACG [TOR1AIP2] | 5.26 ± 0.29 | 5.21 ± 0.27 | – | –
64 | PSHSDNLLHGLNLLWRKQLFCDVT [KLHL14] | 1.96 ± 0.33 | 2.16 ± 0.3 | – | –
65 | PDFYKQSSPNLQVSSDGTLKYMEV [PCDHGC5] | 3.4 ± 0.16 | 3.39 ± 0.45 | – | –
66 | EDSSNQEEEGPSTFPDLESEFQAA [MAGEA3] | 5.51 ± 0.28 | 5.48 ± 0.16 | – | –
67 | YSFYMLTCIDMDWKVLTWLRYTLW [HACD3] | 2.63 ± 0.85 | 2.65 ± 0.36 | – | –
68 | GFRLAEDGKRCRRKDVCKSTHHGC [MATN2] | 3.99 ± 0.66 | 4.09 ± 0.42 | – | –
69 | RRYVASVSLHDRIYVIGGYDGRSR [KLHL12] | 2.53 ± 0.31 | 2.49 ± 0.5 | – | –

Row | Sequence | protein stability index [1] | protein stability index [2] | protein stability index [3] | protein stability index [4]
70 | EQVRFLMKSYSFLREAVPGILRAR [SOAT2] | 1.85 ± 0.62 | 2.1 ± 0.51 | – | –
71 | SSRQTRPILKEQSSSSFSQGQSS [KRT16] | – | – | 5.3 ± 0.29 | 5.33 ± 0.25
72 | DHELGRCTDSVVKYELMRPSNKAP [EHMT1] | 4.19 ± 0.091 | 4.23 ± 0.31 | – | –
73 | LQTLLYFLSDVTAAVKENQMTPTN [DLC1] | 2.04 ± 0.52 | 2.12 ± 0.83 | – | –
74 | PSMNPDGYEVAAAQGPNKPGYLVG [CPN1] | 4.33 ± 0.19 | 4.25 ± 0.24 | – | –
75 | FTEASMMMSLTKLADKELVHMISW [ESR2] | 3.29 ± 0.78 | 3.48 ± 1.2 | – | –
76 | NYRSFEPILRLLPQGISPVSQHWA [ZER1] | 2 ± 0.27 | 2.09 ± 0.26 | – | –
77 | QVFLDRINRADYCPECYPDNPANR [TOR1AIP2] | 2.76 ± 0.33 | 2.9 ± 0.28 | – | –
78 | GSKARAEGRGPVTPLHLDLTQLHR [PLEKHN1] | 3.52 ± 0.061 | 3.835 ± 0.001 | – | –
79 | WRNLGVQQSQGWVHYMIHEPEPHI [CKS1B] | 2.24 ± 0.23 | 2.28 ± 0.18 | – | –
80 | IMALVAAILLLVIIILIVMKYRT [VAMP4] | – | – | 3.07 ± 0.33 | 3.16 ± 0.07
81 | RPPGPAGTEQSRGLGHGSTSRGGP [CPOX] | 4.794 ± 0.018 | 4.92 ± 0.33 | – | –
82 | VKQYLSTTLGPKLASQALTPPPGP [TFE3] | 2.92 ± 0.19 | 2.93 ± 0.3 | – | –
83 | ESEDCKLPSNPCATTNACEKPIGS [KRT33B] | 5.48 ± 0.097 | 5.34 ± 0.18 | – | –
84 | LVEELSPASEKKPVPPSEGKSRLS [BCL2L13] | 5.32 ± 0.31 | 5.46 ± 0.15 | – | –
85 | GPLPVKRGPPPRSGGPPPKRSAPS [RBMX] | 4.49 ± 0.39 | 4.85 ± 0.25 | – | –
86 | LSDTELTTLLRRYNIPHGPVVGST [EMD] | 2.74 ± 0.38 | 2.69 ± 0.26 | – | –
87 | PRSPECRMIPGQPPASARRLSVPR [IRX6] | 4.47 ± 0.24 | 4.52 ± 0.12 | – | –
88 | DDFDEDELMAELEELEQEELNKKM [CHMP4C] | 5.16 ± 0.85 | 5.6 ± 0.3 | – | –
89 | STPVCSQKVVVTTPLHRDKTPLHQ [MYBL2] | 3.92 ± 0.22 | 4.26 ± 0.24 | – | –
